Reference: US20230265185A1 (NATIONAL RESEARCH COUNCIL OF CANADA, published 2023)

T1: recombinant extracellular domain of the predominant human CD22-beta isoform (CD22-ECD) (human, UniProt P20273 20-687, CHO-expressed glycoprotein. Capture on an SA chip implies biotinylation, but the patent does not state it for SPR.)
T1 construct: Expressed in CHO-3E7 cells, IMAC and SEC purified, monomeric fraction; Results say it was immobilized onto a CM5 dextran chip; also called human CD22-ECD; hCD22 ecto-domain
T1 sequence: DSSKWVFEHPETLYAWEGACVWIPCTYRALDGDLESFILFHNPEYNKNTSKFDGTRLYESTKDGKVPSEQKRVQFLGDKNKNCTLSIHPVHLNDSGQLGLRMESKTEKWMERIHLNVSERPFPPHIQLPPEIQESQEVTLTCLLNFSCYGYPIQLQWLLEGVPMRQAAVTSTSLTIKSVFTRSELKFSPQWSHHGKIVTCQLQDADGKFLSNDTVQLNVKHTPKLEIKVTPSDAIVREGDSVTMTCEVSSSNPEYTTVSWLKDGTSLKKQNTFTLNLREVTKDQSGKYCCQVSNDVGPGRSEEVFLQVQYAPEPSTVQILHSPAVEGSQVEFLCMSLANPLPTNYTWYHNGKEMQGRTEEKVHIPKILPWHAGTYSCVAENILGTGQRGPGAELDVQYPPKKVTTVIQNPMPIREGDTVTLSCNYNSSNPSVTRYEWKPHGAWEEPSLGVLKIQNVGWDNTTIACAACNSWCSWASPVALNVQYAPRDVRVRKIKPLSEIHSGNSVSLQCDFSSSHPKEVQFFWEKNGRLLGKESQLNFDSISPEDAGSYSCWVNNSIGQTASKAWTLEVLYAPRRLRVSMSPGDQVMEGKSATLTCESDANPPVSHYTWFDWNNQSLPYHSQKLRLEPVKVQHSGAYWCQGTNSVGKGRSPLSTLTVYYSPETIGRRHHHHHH


target: T1, recombinant extracellular domain of the …; assay: SPR, Biacore T200, VHH over immobilized CD22-ECD
Description: For surface Plasmon resonance, 21 selected VHHs were passed though size exclusion columns, superdex 75 (GE Healthcare), respectively, in 10 mM HEPES, pH 7.4, containing 150 mM NaCl, 3 mM EDTA, monomeric sdAb fractions were collected and protein concentrations were determined by measuring absorbance at 280 nm (A280). Analysis were performed with Biacore T200 instrument (GE Healthcare). All measurements were carried out at 25° C. in 10 mM HEPES, pH 7.4, containing 150 mM NaCl, 3 mM EDTA and 0.005% surfactant P20 (GE Healthcare). Approximately 1919 RUs of the recombinant monomeric CD22-ECD (obtained after SEC purification of the CD22-ECD) were captured on SA sensor chip (GE Healthcare) at a flow rate of 5 uL/min. Various concentration of the monomeric VHHs were injected over CD22-ECD surface, respectively using an SA surface as a reference at a flow rate of 40 µL/min. Surfaces were generated by washing with running buffer. Data were analysed with BIAevaluation 4.1 software.
The monomeric fraction of all 21 VHHs were used for SPR experiment where the human CD22-ECD was immobilized onto the CM5 dextran chip and various VHH concentration (0.6-400 nM) were passed over the sensor chip. […] All of the data collected fit a 1:1 binding model.

Binder | Kd | koff | kon
hCD221ug-6 (VHH, single biotin at the VHH C-terminal (biotinylation signal sequence), llama VHH, expressed in E. coli TG1, IMAC purified, monomeric SEC fraction; also called VHH # 5) VHH: QVQLVESGGGVVRPGDSLRLSCTVSGFTLDYYVMGWFRQAPGKEREVVSCISSSDGVTYYADSVKGRFTISRDNAKNTVYLQMNSLKPEDTAIYYCAVDKPFYDGGYYYTCPVDFDSWGQGTQVTVSS | 2.41 nM | 0.000129 s⁻¹ | 53600 M⁻¹ s⁻¹
hCD22pas-10 (VHH, single biotin at the VHH C-terminal (biotinylation signal sequence), llama VHH, expressed in E. coli TG1, IMAC purified, monomeric SEC fraction; also called VHH # 6) VHH: QVQLVESGGGLVQPGDSLRLSCTVSGFTSDYYAMGWFRQAPGKEREAVSCISSSDGVTYYADSVRGRFTISRDNAKNTVYLEMNSLKPEDTAIYYCAVDKPFYDGGYLYTCPVDFDSWGQGTQVTVSS | 19 nM | 0.00289 s⁻¹ | 152000 M⁻¹ s⁻¹
hCD22pas-16 (VHH, single biotin at the VHH C-terminal (biotinylation signal sequence), llama VHH, expressed in E. coli TG1, IMAC purified, monomeric SEC fraction; also called VHH # 20) VHH: QVQLVESGGGLVQAGGSLRLSCAASGSTFSLKAMAWYRQAPGKQRERVGVINSDGSYTTDAASVQGRFTISRDNAKNTVYLQMNSLKPEDTAVYYCNTMPPWPWGQGTQVTVSS | 2.75 nM | 0.001 s⁻¹ | 365000 M⁻¹ s⁻¹
hCD221ug-77 (VHH, single biotin at the VHH C-terminal (biotinylation signal sequence), llama VHH, expressed in E. coli TG1, IMAC purified, monomeric SEC fraction; also called VHH # 8) VHH: QVKLEESGGGLVQPGGSLRLSCADSGSIFRIAVMNWYRQAPGKERELVAVITSGGETHYAASVKGRFTISRDNAKNTMYLQMNSLKPEDTAVYYCNAKWGQYEYWGQGTQVTVSS | 4.77 nM | 0.00262 s⁻¹ | 550000 M⁻¹ s⁻¹
hCD22pas-33 (VHH, single biotin at the VHH C-terminal (biotinylation signal sequence), llama VHH, expressed in E. coli TG1, IMAC purified, monomeric SEC fraction; also called VHH # 7) VHH: QVKLEESGGGLVQPGGSLRLSCTVSGFTLDSYVMGWFRQAPGKEREAVSCISSSDGVTYYADSVKGRFTISRDNAKNTYLQMNSLKPEDTAIYYCAVDKPFYDGGYLYTCPVDFDSWGQGIQVTVSS | 2.6 nM | 0.00014 s⁻¹ | 54000 M⁻¹ s⁻¹

The remaining lines, values ahead:

Kd | koff | kon | Binder
0.00684 nM | 2.1e-05 s⁻¹ | 3.07e+06 M⁻¹ s⁻¹ | hCD221ug-14 (VHH, single biotin at the VHH C-terminal (biotinylation signal sequence), llama VHH, expressed in E. coli TG1, IMAC purified, monomeric SEC fraction; also called VHH # 16; 9-hCD22 1ug-14) VHH: QVKLEESGGGLVQAGGSLRLSCAVSGRIFRSYVLGWFRQAPGKERELVARIGWSDTYYADSVKGRFTISRDNAKNTVDLQMNSLKPEDTAVYYCAANSPPYGPQRDEFDYWGQGTQVTVSS
2.78 nM | 0.00013 s⁻¹ | 46800 M⁻¹ s⁻¹ | hCD22100ng-2 (VHH, single biotin at the VHH C-terminal (biotinylation signal sequence), llama VHH, expressed in E. coli TG1, IMAC purified, monomeric SEC fraction; also called VHH # 2) VHH: QVKLEESGGGLVQPGGSLRLSCTVSGVTFDYYVMGWFRQAPGKEREVVSCMRNSDGVTYYADSVKGRFTISRDNAKNTVYLQMNSLKPDDTAIYYCAVDKPFYDGGNYYTCPVDFDSWGQGTQVTVSS
0.924 nM | 0.000134 s⁻¹ | 145000 M⁻¹ s⁻¹ | hCD22100ng-66 (VHH, single biotin at the VHH C-terminal (biotinylation signal sequence), llama VHH, expressed in E. coli TG1, IMAC purified, monomeric SEC fraction; also called VHH # 4) VHH: QVQLVESGGGLVQPGGSLRLSCTVSGFSLDYYVMGWFRQAPGKEREVVSCISSSDGATYYPDSVKGRFTISRDNAKKTVYLQMNALKPEDTAIYYCAVDKPFYDGGSYYTCPVDFGSWGQGTQVTVSS
7.72 nM | 0.00397 s⁻¹ | 514000 M⁻¹ s⁻¹ | hCD22pas-79 (VHH, single biotin at the VHH C-terminal (biotinylation signal sequence), llama VHH, expressed in E. coli TG1, IMAC purified, monomeric SEC fraction; also called VHH # 18) VHH: QVKLEESGGGLVQPGGSLRLSCTVSGRTSSVYGMAWFRQTPGKEREFVAAMSWSGGPTYFADSVKGRFGSSRDNAKNTVYLQMNGLRPEDTAVYYCAVRIRRTLLEPLTKETLYDYWGQGTQVTVSS
7.7 nM | 0.0105 s⁻¹ | 1.36e+06 M⁻¹ s⁻¹ | hCD221ug-93 (VHH, single biotin at the VHH C-terminal (biotinylation signal sequence), llama VHH, expressed in E. coli TG1, IMAC purified, monomeric SEC fraction; also called VHH # 11) VHH: QVKLEESGGGLVQAGGSLRLSCAASGSTFSSSVMNWYRQAPGKQRELVAVITSSGSTHYADSVKGRFTISRDNAKNTVNLQMNSLKPEDTAVYYCNAQYGRRSDWGQGTQVTVSS
0.865 nM | 0.00121 s⁻¹ | 1.4e+06 M⁻¹ s⁻¹ | hCD221ug-75 (VHH, single biotin at the VHH C-terminal (biotinylation signal sequence), llama VHH, expressed in E. coli TG1, IMAC purified, monomeric SEC fraction; also called VHH # 10) VHH: QVKLEESGGGLVQPGGSLRLSCAGSGSIFRIAVMNWYRQAPGKERELVAVITSGGDTHYAASVKGRFTISRDNAKNTMYLQINSLKPEDTAVYYCNAKYGRDEYWGQGAQVTVSS
0.647 nM | 0.000797 s⁻¹ | 1.23e+06 M⁻¹ s⁻¹ | hCD221ug-87 (VHH, single biotin at the VHH C-terminal (biotinylation signal sequence), llama VHH, expressed in E. coli TG1, IMAC purified, monomeric SEC fraction; also called VHH # 9) VHH: QVQLVESGGGLVQPGGSLRLSCADSGSIFRIAVMNWYRQAPGKERELVAVITSGGETHYAASVKGRFTISRDNAKNTMYLQMNSLKPEDTAVYYCNAKWGRDEYWGQGTQVTVSS
7.08 nM | 0.000655 s⁻¹ | 92500 M⁻¹ s⁻¹ | hCD221ug-74 (VHH, single biotin at the VHH C-terminal (biotinylation signal sequence), llama VHH, expressed in E. coli TG1, IMAC purified, monomeric SEC fraction; also called VHH # 3) VHH: QVKLEESGGGLVQAGGSLRLSCAGSGFTFDDYAMGWFRQAPGKEREVVSCMGSSDGATYYADSVKGRFTISRDNAKNTVYLQMNSLKPEDTAIYYCAVDKPFYDGGYRYTCPVDFGSWGQGTQVTVSS
